The target in this experiment is native human thyroglobulin (human) (UniProt P01266). The experiment can be described thus: cryo-EM structure; hTG at 2 mg/mL in 25 mM Tris-HCl pH 7.5, 150 mM NaCl, sodium azide; plunge frozen; C2 symmetry imposed; composite map at 3.2 Å.

What is called stoichiometry N is a count of units in the complex or per binding partner. “native human thyroglobulin, P01266 20-2768” yielded a stoichiometry N of 2.

The values are drawn from PMC8748809.
